These results are taken from the supplement of paper PMC9170038.

The subject of the series is K4 kissing-loop RNA reporter. The series is described as follows: apparent KD of K4 kissing-loop reporter; higher = weaker reporter binding. The following applies: Eterna round: R107. The procedure: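 RNA-MaP round R107: designed RNA switches with theophylline, tryptophan, arginine or FMN aptamers are transcribed on-chip within common flanks. They are titrated with a labelled K4 kissing-loop RNA reporter in RNA-MaP buffer (100 mM Tris pH 7.5, 80 mM KCl, 4 mM MgCl2), without ligand or with the indicated ligand. Median apparent KD per design.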

[1] abbreviates: input ligand: theophylline 20 uM.
Setting [2] is: input ligand: tryptophan 2.4 mM.
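Note: bound reporter read as fluorescence of individual clusters on recovered sequencing chips by microscopy, with normalized cluster intensities fitted with a binding model.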

Take “AUAGGAUUGCGAGGAUAUCCUUCCCACGUCGAAGUACCGUGCUUGAUGGAGUGAUGUUCGAUCAGAGGAGAAGGUGCGGUUUUGU [Same State FMN B GF24]”: the “apparent KD of K4 kissing-loop reporter” value by setting is: (input ligand: FMN 200 uM) 292 nM; (input ligand: arginine 13.2 mM) 593 nM; (input ligand: none) 942 nM; under setting [1], 732 nM; under setting [2], 944 nM.
On the same counts, the results for “AUGGGUCCACGAAGGAGCGCCGUGCAGUGAUGUUGCAGUUAGAUCCAGUGAUGUUUGGGCCGGCAGGUAGGUCGCGUGGAUUUAU [Exclusion Arginine B GF 22]” are 249 nM, 199 nM, 249 nM, 243 nM and 222 nM.
On the same counts, the results for “AUGUAUGAAUUAGGAUAUCGUUAGCCUAUCAUAUAUAUGAUAAAUGGAUAUGUCGUAGUGAUGUUACGAGAAGGAGUGUGGAGUA [KL-XFMN-B7]” are 55.8 nM, 62.9 nM, 55.4 nM, 82.7 nM and 39 nM.
For the sequence “AUGUCUUAUAAACUCAUGGUUUCGAUCGAUACCAGUAGCGAGAGUUACCCUUGGCAGCGACAUGAGUGAUGUUCAUGUACGAAGA [KL-XTheoA5]”, the “apparent KD of K4 kissing-loop reporter” value amounted to 109 nM (input ligand: FMN 200 uM); 98.7 nM (input ligand: arginine 13.2 mM); 103 nM (input ligand: none); 106 nM under setting [1]; 90 nM under setting [2].
On the same counts, the results for “AUUAAUUUCAGAGGAUAUCGUUAUUUUUUUAAGUAUAAUCUAUUAUGCAGUGAUGUUGCUAUUAAUCGAGAAGGCUGAUUUAUAA [JR_ExcFMNB_Sub001]” are 114 nM, 141 nM, 79.5 nM, 134 nM and 78.5 nM.
“AUUACAUCUGAAAAGCUAGUGAUGUUAGCUCGAGGACCGGUACGGCCGCCACUCGCAUAGCGAGGCCAAGUCGCGGUUAACGGAG [theeternabot_exclusion_KL_Trp_A_4]”: the “apparent KD of K4 kissing-loop reporter” value reads like this: (input ligand: FMN 200 uM) 96.7 nM; (input ligand: arginine 13.2 mM) 86.7 nM; (input ligand: none) 97.2 nM; under setting [1], 89.1 nM; under setting [2], 83.3 nM.
On the same counts, the results for “AUUAUAUAGGCGGCCGCCACUAGUGAUGUUAGUGAUGUCAUAAUAUAAUGAUAAAUUAUAUUGCGUAGGACCGGGCCUAAAUAUU [#15 K4 Tryptophan B Exclusion]” are 108 nM, 62.3 nM, 86.3 nM, 100 nM and 111 nM.
On the same counts, the results for “AUUAUAUUGUGAAGGAGCGCGCAUAGUAGUGAUGUUACUAUGACAUAUCUUAUUUAAUUCUCGCAGGUAGGUCGCACAUUAUAUA [JR_Nu_ExcArginiB_Sub026]” are 92.5 nM, 64.8 nM, 79.7 nM, 65.5 nM and 71.8 nM.
On the same counts, the results for “AUUCCCACUUAAGGAUAUCAAGGAGUGAUGUUCCAAAUGGUCCACGUCGCGGCUCUCCGGGCACAAUGAGAAGGUAAAGCUGGGU [theeternabot_exclusion_KL_FMN_B_43]” are 278 nM, 275 nM, 276 nM, 370 nM and 210 nM.
Consider “AUUGUACAGGGAAGGAGCGUCGACCAGUGAUGUUGGAGUUAAAUACCAGUGAUGUUGGUUAGGCAGGUAGGUCGCCCUCAAGUAG [#10 K4 Arginine B Exclusion]”, for which the “apparent KD of K4 kissing-loop reporter” value is, setting by setting: (input ligand: FMN 200 uM) 180 nM; (input ligand: arginine 13.2 mM) 126 nM; (input ligand: none) 141 nM; under setting [1], 219 nM; under setting [2], 118 nM.
On the same counts, the results for “AUUUAAUUAACUGAUACCAGACUUUAAGUAAUUAUUAAAACUAGUGAUGUUAGUUUAUCUGUCCCUUGGCAGCAGUUUCUACUUA [JR_Nu_ExcTheophyB_Sub020]” are 144 nM, 136 nM, 158 nM, 135 nM and 127 nM.
On the same counts, the results for “AUUUAAUUAACUGAUACCAGACUUUAUGUAUUUAUUAAAACUAGUGAUGUUAGUUUAUCUGUCCCUUGGCAGCAGUUUCUACUUA [JR_Nu_ExcTheophyB_Sub021]” are 93.5 nM, 113 nM, 105 nM, 105 nM and 83.4 nM.
On the same counts, the results for “AUUUAGACGAGUGAUGUUCGUGAUUUUUCAGAGGAUAUGCGUAAUAGCAGAAGGCUGUAUUUAUAUAUAUUUUGAUUUUUUUAAA [JR_ExcFMNA_Sub009]” are 69.6 nM, 81.6 nM, 59.5 nM, 82.8 nM and 62.3 nM.
Regarding “AUUUAGACGAGUGAUGUUCGUGUUUUUUCAGAGGAUAUGCGUAAUUGCAGAAGGCUGUAUUUAUAUAUGUUUUGUUUUUUUAAAA [JR_ExcFMNA_Sub008]”, the “apparent KD of K4 kissing-loop reporter” value (input ligand: FMN 200 uM) came to 80.4 nM; the “apparent KD of K4 kissing-loop reporter” value (input ligand: arginine 13.2 mM) was 92.1 nM; the “apparent KD of K4 kissing-loop reporter” value (input ligand: none) was found to be 75.4 nM; the “apparent KD of K4 kissing-loop reporter” value under setting [1] is 93.6 nM; the “apparent KD of K4 kissing-loop reporter” value under setting [2] came to 69.3 nM.
On the same counts, the results for “AUUUUGUUGUCAGGAUAUUAGUAUGGUUUUGGUUUGUUAGUGAUGUUGAUGUUUUGUUUAUGUAUUUAAGAAGGGAUUUAGCGGU [aqaawgumullin]” are 474 nM, 352 nM, 400 nM, 401 nM and 343 nM.
For the sequence “AUUUUUUACAGAAGGAGCGUGUUUUAAUAAUCAUGGUGCUUAGCGAGUGAUGUUCGCUUUACACAGGUAGGUCGCUGUUUAUUUA [JR_Nu_ExcArginiB_Sub030]”, the “apparent KD of K4 kissing-loop reporter” value amounted to 120 nM (input ligand: FMN 200 uM); 113 nM (input ligand: arginine 13.2 mM); 127 nM (input ligand: none); 112 nM under setting [1]; 112 nM under setting [2].
For “AUUUUUUUAUCAGGAUAUUAGUGAUGGUUGUUUUUGUUAGUGAUGUUGAUAUUUGUUUUAUGUAUUUAAGAAGGGAUUGAGAUGU [zbbzmullin]”, the “apparent KD of K4 kissing-loop reporter” value is, setting by setting: (input ligand: FMN 200 uM) 68.1 nM; (input ligand: arginine 13.2 mM) 24.7 nM; (input ligand: none) 42.9 nM; under setting [1], 31.7 nM; under setting [2], 49.7 nM.
On the same counts, the results for “AUUUUUUUAUCAGGAUAUUAGUGUUGGUUUGUUUUGUUAGUGAUGUUGAUAUUUGUUUUAUGUAUUUAAGAAGGGAUUGAGAUGU [huupullin]” are 283 nM, 254 nM, 278 nM, 395 nM and 211 nM.
